# Results published in IntAct's records for PubMed 25487150.
# B1: Protein phosphatase PP2A regulatory subunit B (Schizosaccharomyces pombe (strain ATCC 38366 / 972)), Q12702 (parent)
# chain: MDDIEDSLDQWKFAQCFGDKGDVEDITEADIISAVEFDHTGDYLATGDKGGRVVLFERNHSKKGCEYKFFTEFQSHEPEFDYLKSLEIEEKINKIRWCKRTNRAHFLLSTNDKTIKLWKLYEKNLKVVAENNLSDSFHSPMQGPLTTPSQLRLPRLNHHDMIIAAYPRRVYANAHAYHINSISVNSDAETYISADDLRINLWNLSISDHSFNIVDIKPENMEELTEVITSAEFHPINCNHLMYSSSKGNIKLLDLRQSALCDNPCKLFEDQEDQDSKSFFSEIISSISDVKFSQNGRYILSRDYLTLKIWDVNMEKAPVKTIPLHDVLRSKLCDLYENDCIFDKFECTFSGDDKHVLSGSYSNNFGIYPTDSSLPGDRGQIVLQADKAAFRARKSAANNVPKLNAVKNNDWRSQPQAAMGSASVGLDPDNLDYNKKILHASWHPFEDSVAIAATNNLFVFSKL
# B2: Spindle pole body-associated protein cut12 (Schizosaccharomyces pombe (strain ATCC 38366 / 972)), O59755 (parent)
# chain: MSETLNTPPTYAWVLKAFSSKLAGTVTKPVTKMSSYIEDAESDAELPQDAKEDLRPTETLTPLKSKAAQNGILKTPGTLQIKKTVNFKDISKDAATWNRPTKNNFLFTRLDDENPLMGHEEFKSPLLQSTPKPNINNPDNENKSKHDEFDNRYNININESYKNETKSNQRLGEDVPSKKKYPHSMDAEISKFKWDSNNNNDWSSLMKDCFRDVVNNNRKMKEIIKDVMIDTSQAFPSESLDEPDYTINLDAPRSSSGKYWKQKFSMLDSAHSDLELELTSIRERLESLILEKQEEINFWKQRCRALETEKIHNHQGQQSKYKGKEFVGNRFSQMRELYTAKPSPITTKVVSRPSQSDVREPQEQVPSKNLHRGADMSHLAAQMLTHSSKKSHTTNLIPSEGIISSTPISAASKVRMNLMQSNQTPTPAPFSIAAKKSHLPSKLSFPQDGGSLSSATTLQQLPKARVTPNVLSSLSSNLGKTNPTSVYQSKANVTTSADVEKPQVKVATSSRVDYDLKSPNQRTANAKKRLEERRRRRKLKLQELQLNS
# Variants of: B1
# Details: with pp11_schpo dis2, P13681
row,Variant,effect of a mutation on the interaction
1,R52A;V54A;F56A,disrupting interaction strength
2,V54A,decreasing interaction strength

# Variants of: B2
# Details: with pp11_schpo dis2, P13681
# Target sequence in this assay (P13681 whole entry): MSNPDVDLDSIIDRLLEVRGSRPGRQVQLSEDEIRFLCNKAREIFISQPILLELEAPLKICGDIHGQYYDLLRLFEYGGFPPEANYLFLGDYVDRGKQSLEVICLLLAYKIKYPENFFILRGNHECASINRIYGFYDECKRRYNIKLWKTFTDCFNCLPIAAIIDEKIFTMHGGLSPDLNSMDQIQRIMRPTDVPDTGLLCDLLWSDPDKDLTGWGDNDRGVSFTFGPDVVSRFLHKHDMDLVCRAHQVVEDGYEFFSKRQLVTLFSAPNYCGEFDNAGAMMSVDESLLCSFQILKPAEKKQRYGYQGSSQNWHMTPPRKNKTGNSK
row,Variant,effect of a mutation on the interaction
1,G71V,decreasing interaction strength
2,G71V;K83A;V85A;F87A,disrupting interaction strength
3,I72L;K74R;V85A;F87A,decreasing interaction strength
4,V85A;F87A,decreasing interaction strength
